Measured values taken from publication PMC4437517 (Proteins, 2008).

How the values were obtained:
SEC = biological target: the molecule itself; assay: SEC
crystal structure = biological target: the molecule itself; assay: crystal structure

B1: protein product of the Arabidopsis thaliana gene locus At1g05000 (enzyme, UniProt Q9ZVN4 1-215, looked up)
chain: SKLVEKTTTTEQDNGEDFCRTIIEVSEVNRNVFQAPGGEADPFRVVSGEELHLIPPLNFSMVDNGIFRSGFPDSANFSFLQTLGLRSIIYLCPEPYPESNLQFLKSNGIRLFQFGIEGNKEPFVNIPDHKIRMALKVLLDEKNHPVLIHCKRGKHRTGCLVGCLRKLQKWCLTSIFDEYQRFAAAKARVSDQRFMEIFDVSSFSHIPMSFSCSIR
modifications: selenomethionine-labeled
SEC
  stoichiometry N: 2
Crystal structure
  stoichiometry N: 6
